Test results published in patent US20050079543A1.

Columns and labels:
[1] = molecular target: Stat84, activated (from IFN-γ-treated C84 or Cmx cells) (human) (UniProt P42224); test: cell-based or functional assay
[2] = molecular target: Stat91L, activated (from IFN-γ-treated C91L or Cmx cells) (human) (UniProt P42224); test: cell-based or functional assay
[3] = molecular target: tyrosine phosphorylated Stat91 (human) (UniProt P42224); test: native gel electrophoresis, Ferguson plots
[4] = molecular target: tyrosine phosphorylated Stat91 (human) (UniProt P42224); test: glycerol gradient sedimentation

Chain of Stat91L, activated (from IFN-γ-treated C91L or Cmx cells) (human) (P42224 2-750, stated change not applied): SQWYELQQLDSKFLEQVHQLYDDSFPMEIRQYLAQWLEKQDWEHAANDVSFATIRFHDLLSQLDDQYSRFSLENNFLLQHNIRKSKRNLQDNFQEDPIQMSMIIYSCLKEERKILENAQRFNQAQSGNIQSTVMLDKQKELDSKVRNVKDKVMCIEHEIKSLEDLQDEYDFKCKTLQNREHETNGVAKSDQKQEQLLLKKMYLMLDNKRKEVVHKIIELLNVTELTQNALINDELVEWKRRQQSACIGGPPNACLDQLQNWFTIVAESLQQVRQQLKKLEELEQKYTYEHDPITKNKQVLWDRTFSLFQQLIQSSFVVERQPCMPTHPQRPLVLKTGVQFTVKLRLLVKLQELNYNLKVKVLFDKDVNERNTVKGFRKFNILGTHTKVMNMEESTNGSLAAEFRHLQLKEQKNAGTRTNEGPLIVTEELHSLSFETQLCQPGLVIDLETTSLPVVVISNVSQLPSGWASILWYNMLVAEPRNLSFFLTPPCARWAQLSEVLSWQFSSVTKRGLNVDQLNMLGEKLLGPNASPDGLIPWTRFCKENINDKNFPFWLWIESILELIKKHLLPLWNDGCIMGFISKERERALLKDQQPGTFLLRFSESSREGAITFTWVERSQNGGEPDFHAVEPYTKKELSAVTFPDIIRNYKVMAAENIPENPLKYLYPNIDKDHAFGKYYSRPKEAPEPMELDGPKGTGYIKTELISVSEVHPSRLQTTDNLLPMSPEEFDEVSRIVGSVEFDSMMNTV
Chain of Stat84, activated (from IFN-γ-treated C84 or Cmx cells) (human) (P42224 2-712 limits assumed): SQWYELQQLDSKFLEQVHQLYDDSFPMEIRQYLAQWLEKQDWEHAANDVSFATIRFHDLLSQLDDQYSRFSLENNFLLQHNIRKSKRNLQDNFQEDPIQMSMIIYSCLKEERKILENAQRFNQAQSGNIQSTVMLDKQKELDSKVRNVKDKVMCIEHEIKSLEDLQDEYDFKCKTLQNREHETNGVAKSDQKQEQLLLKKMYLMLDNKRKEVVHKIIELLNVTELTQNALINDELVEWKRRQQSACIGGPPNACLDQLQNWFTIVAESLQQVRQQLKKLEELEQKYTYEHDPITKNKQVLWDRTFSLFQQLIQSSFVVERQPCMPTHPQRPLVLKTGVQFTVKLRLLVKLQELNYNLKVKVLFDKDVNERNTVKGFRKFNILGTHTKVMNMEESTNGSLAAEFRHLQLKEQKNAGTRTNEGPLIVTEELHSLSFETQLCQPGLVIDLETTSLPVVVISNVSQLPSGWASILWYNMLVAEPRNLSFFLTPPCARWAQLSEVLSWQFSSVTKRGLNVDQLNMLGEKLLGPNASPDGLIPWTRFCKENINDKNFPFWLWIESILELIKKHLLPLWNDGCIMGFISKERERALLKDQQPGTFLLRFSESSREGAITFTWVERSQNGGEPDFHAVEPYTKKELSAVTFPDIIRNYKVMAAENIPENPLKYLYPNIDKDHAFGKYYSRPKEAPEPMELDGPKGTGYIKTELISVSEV

Row | Substance | fusion protein concentration that promoted heterodimer formation (gel mobility shift) [1] [µM] | fusion protein concentration that promoted heterodimer formation (gel mobility shift) [2] [µM] | native molecular weight [3] [kD] | native molecular weight [4] [kD]
1 | GST-91SH2 (glutathione-S-transferase fused to the Stat91 SH2 domain, amino acids 573 to 672) (from UniProt P42224 573-672) | 0.5 to 5 | 0.5 to 5 | – | –
2 | tyrosine phosphorylated Stat91 (from UniProt P42224 2-750) | – | – | 180 | 180
